Target: HSV-1 major capsid protein VP5 (gene product of UL19) (herpes simplex virus type 1 (HSV-1))
Test: co-immunoprecipitation with VP5 antisera of in vitro translated radiolabeled protein mixed with BAC-VP5 Sf9 extract, SDS-PAGE

Work on HSV-1 UL15 gene product (75 kD protein) yielded a fold amount co-immunoprecipitated with VP5 against the negative control proteins (HPV-6b E1, HPV-16 E1, HPV-16 E2) of 10 fold.
